B1: AnkB_repeats (24 ANK repeats of human 220 kDa ankyrin-B, residues 28–873) [human] / Cav1.3 peptide (mouse Cav1.3 residues 2134–2166), FITC-labeled [modified: FITC label (position not stated); FITC label (position not stated)] [mouse] (parent complex)
chain 1: KSDSNASFLRAARAGNLDKVVEYLKGGIDINTCNQNGLNALHLAAKEGHVGLVQELLGRGSSVDSATKKGNTALHIASLAGQAEVVKVLVKEGANINAQSQNGFTPLYMAAQENHIDVVKYLLENGANQSTATEDGFTPLAVALQQGHNQAVAILLENDTKGKVRLPALHIAARKDDTKSAALLLQNDHNADVQSKMMVNRTTESGFTPLHIAAHYGNVNVATLLLNRGAAVDFTARNGITPLHVASKRGNTNMVKLLLDRGGQIDAKTRDGLTPLHCAARSGHDQVVELLLERGAPLLARTKNGLSPLHMAAQGDHVECVKHLLQHKAPVDDVTLDYLTALHVAAHCGHYRVTKLLLDKRANPNARALNGFTPLHIACKKNRIKVMELLVKYGASIQAITESGLTPIHVAAFMGHLNIVLLLLQNGASPDVTNIRGETALHMAARAGQVEVVRCLLRNGALVDARAREEQTPLHIASRLGKTEIVQLLLQHMAHPDAATTNGYTPLHISAREGQVDVASVLLEAGAAHSLATKKGFTPLHVAAKYGSLDVAKLLLQRRAAADSAGKNGLTPLHVAAHYDNQKVALLLLEKGASPHATAKNGYTPLHIAAKKNQMQIASTLLNYGAETNIVTKQGVTPLHLASQEGHTDMVTLLLDKGANIHMSTKSGLTSLHLAAQEDKVNVADILTKHGADQDAHTKLGYTPLIVACHYGNVKMVNFLLKQGANVNAKTKNGYTPLHQAAQQGHTHIINVLLQHGAKPNATTANGNTALAIAKRLGYISVVDTLKVVTEEVTTTTTTITEKHKLNVPETMTEVLDVSDEEGDDTMTGDGGEYLRPEDLKELGDD
chain 2: ELQDFGPGYSDEEPDPGREEEDLADEMICITTL

Variants of: B1
Assay: fluorescence polarisation; parent: 3.3e+03 nM

Row | Variant | Kd [µM]
1 | chain 1 I240Q, chain 1 L273Q | 8.2
2 | chain 1 L339Q, chain 1 F372Q, chain 1 L405Q | 4
3 | chain 1 F104Q, chain 1 F137Q | 3.3

Source: PMC4358367, “Structural basis of diverse membrane target recognitions by ankyrins” (eLife, 2014)
